Substitutions are numbered along the chain they refer to. Like-named read-outs stand apart in the source and are kept apart here.
T1: human BDCA-2 (human, UniProt Q8WTT0 1-213)
T1 sequence: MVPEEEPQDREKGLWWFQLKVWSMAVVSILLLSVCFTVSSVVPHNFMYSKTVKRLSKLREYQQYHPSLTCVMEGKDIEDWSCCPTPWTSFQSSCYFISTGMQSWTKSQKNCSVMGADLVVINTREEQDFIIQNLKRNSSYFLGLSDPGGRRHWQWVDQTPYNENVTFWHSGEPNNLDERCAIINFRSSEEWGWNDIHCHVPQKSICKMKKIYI

T2: human BDCA-2 variant (human, UniProt Q8WTT0 1-213)
T2 construct: It was expressed on CHO-K1 cells together with full-length human FcεRIγ; also called human BDCA-2 variant/CHO cells; extracellular region of human BDCA-2
T2 chain: T1 sequence with S33C

B1: BDC3-12A2 (chimeric) (antibody, V domains shown)
VH: QVQLVESGGGVVQPGRSLRLSCAASGFTLSSYGMHWVRQAPGKGLEWVAVIWYDGNDKYYADSVKGRFTISRDNSKNTLYLQVNSLRAEDTAVYYCARGTGTPYWYFDLWGRGTLVTVSS
VL: EIVLTQSPATLSLSPGERATLSCRASQSVNNYLAWYQQKPGQAPRLLIYDASNRATGIPARFSGSGSGTDFTLTISSLEPEDFAVYYCQQRSTWPPYTFGQGTKLEIKR
notes: Hybridoma-derived VelocImmune antibody: human variable regions with mouse constant regions
B2: Fully human BDC3-12A2 (antibody, human IgG1, kappa, V domains shown)
VH: B1 VH
VL: B1 VL
modifications: pyroglutamylation at the N terminal of the heavy chain and deletion of lysine at the C terminal of the heavy chain in most of the purified antibody (Example 6)
notes: Human Igγ1 / human Igκ constant regions, expressed in CHOK1SV cells; also called fully human antibody of BDC3-12A2
B3: Fully human BDC3-12F5 (antibody, human IgG1, kappa, V domains shown)
VH: EVQLVESGGGLVQPGGSLRLSCAASGFTFSNYLMNWVRQAPGKGLEWVANIEQDGSEKYYVDSVKGRFTISRDNAKNSLYLQMNSLRAEDTAVYFCARDGDTAMITFDFWGQGTLVTVSS
VL: DIQMTQSPSSVSASVGDRVTITCRASQGIRRWLAWYQQKPGKAPKLLIYAASSLQRGVPSRFSGSGSGTDFTLTISSLQPEDFATYYCQQANSFPWTFGQGTKVEIKR
modifications: deletion of lysine at the C terminal of the heavy chain in most of the purified antibody (Example 6)
notes: Human Igγ1 / human Igκ constant regions, expressed in CHOK1SV cells; also called fully human antibody of BDC3-12F5
B4: Fully human BDC13-32E3 (antibody, human IgG1, kappa, V domains shown)
VH: QVQLQESGPGLVKPSQTLSLTCTVSGGSISSGGYYWNWIRQHPGKGLEWIGYIYYSGNTYYNPSLKSRVTISVDTSKNQFSLKLSSVTAADAAVYHCARGYGDYGGGYFDYWGQGTLVTVSS
VL: DIQMTQSPSSLSASVGDRVTITCQASQDISNYLNWYQQKPGKAPKFLIYDVSNLETGVPSRFSGSGSGTDFTFTISSLQPEDIATYYCQQYDNLPYTFGQGTKLEIKR
modifications: pyroglutamylation at the N terminal of the heavy chain and deletion of lysine at the C terminal of the heavy chain in most of the purified antibody (Example 6)
notes: Human Igγ1 / human Igκ constant regions, expressed in CHOK1SV cells; also called fully human antibody of BDC13-32E3
B5: BDC3-12F5 (chimeric) (antibody, V domains shown)
VH: B3 VH
VL: B3 VL
notes: as for B1
B6: BDC13-32E3 (chimeric) (antibody, V domains shown)
VH: B4 VH
VL: B4 VL
notes: as for B1

Columns and labels:
human BDCA-2 [1] = biological target: T1, human BDCA-2; assay: cell-based or functional assay
human BDCA-2 variant [2] = biological target: T2, human BDCA-2 variant; assay: cell ELISA on human BDCA-2 variant/CHO cells, chemiluminescence
Method: (§1) In order to measure the antigen-specific binding activity of the antibody, the binding of the antibody to the human BDCA-2 variant/CHO cells prepared in Example 1 was evaluated. Specifically, the human BDCA-2 variant/CHO cells were first suspended in an RPMI1640 culture medium (Life Technologies, Inc.) at 2×10⁵ cells/mL, seeded at 50 μL per well in a poly-D-lysine-coated 384-well plate (Greiner Bio-One), and cultured overnight in a CO₂ incubator set at 37° C. Then, the culture medium was removed, and 20 μL of each of a hybridoma-derived antibody (the antibody purified in Example 2) and a comparative antibody which had been diluted stepwise from a concentration of 10000 ng/mL to 4.6 ng/mL (8 steps in a 3-fold dilution series) with a diluent solution (a Hank's Balanced Salt solution supplemented with 1% bovine serum albumin) was added thereto and reacted at room temperature for 1 hour. Next, the assay plate was washed with a washing solution (a Hank's Balanced Salt solution supplemented with 0.1% bovine serum albumin) and 20 μL of an HRP-labeled rabbit anti-mouse IgG antibody ([…]: Dako Ltd.) which had been diluted 5000-fold with a diluent solution was added thereto, and reacted at room temperature for 30 minutes. Thereafter, the assay plate was washed with a washing solution, 30 μL of BM-Chemiluminescence ELISA Substrate (POD) (Roche Diagnostics. Inc.) which is a chemiluminescence detection reagent was added thereto, and the amount of chemiluminescence thereof was measured by an EnVision counter (PerkinElmer, Inc.). For the measurement results, the EC50 values were determined by fitting a four-parameter logistic curve. In this test, as a comparative antibody, AC144 (Non-Patent Documents 1 to 4, Miltenyi Biotec) which is a mouse antibody against human BDCA-2 was used.

human BDCA-2 [3] = biological target: T1, human BDCA-2; assay: cell-based or functional assay; remark: listed apart in the source
human BDCA-2 [4] = biological target: T1, human BDCA-2; assay: cell-based or functional assay; remark: listed apart in the source
human BDCA-2 variant [5] = biological target: T2, human BDCA-2 variant; assay: cell ELISA on human BDCA-2 variant/CHO cells, average of three independent tests
Method: as §1
According to the method of Example 3, for a fully human antibody, the binding activity of the antibody against an extracellular region of human BDCA-2 was evaluated. […]

Molecule | EC50 (human BDCA-2 variant [2]) | IC50 of inhibition of IFNα production from ODN2216-stimulated human PBMC (pDCs) (human BDCA-2 [3]) | IC90 of inhibition of IFNα production from ODN2216-stimulated human PBMC (pDCs) (human BDCA-2 [3]) | IC50 of inhibition of IFNα production from human PBMC (pDCs), first time (human BDCA-2 [4]) | IC50 of inhibition of IFNα production from human PBMC (pDCs), second time (human BDCA-2 [4]) | IC90 of inhibition of IFNα production from human PBMC (pDCs), first time (human BDCA-2 [4]) | IC90 of inhibition of IFNα production from human PBMC (pDCs), second time (human BDCA-2 [4]) | EC50 (human BDCA-2 variant [5]) | also measured
AC144 (antibody) | 0.133 µg/mL |  |  |  |  |  |  |  | IC50 of inhibition of IFNα production from ODN2216-stimulated human PBMC (pDCs) (human BDCA-2 [1]): 2.57 ng/mL; IC50 of inhibition of IFNα production from human PBMC (pDCs), first time (human BDCA-2 [1]): 2.12 ng/mL; IC50 of inhibition of IFNα production from human PBMC (pDCs), second time (human BDCA-2 [1]): 3.83 ng/mL; IC90 of inhibition of IFNα production from ODN2216-stimulated human PBMC (pDCs) (human BDCA-2 [1]): 56.5 ng/mL; IC90 of inhibition of IFNα production from human PBMC (pDCs), first time (human BDCA-2 [1]): 20.6 ng/mL; IC90 of inhibition of IFNα production from human PBMC (pDCs), second time (human BDCA-2 [1]): 26.8 ng/mL
B1 | 0.059 µg/mL | 0.27 ng/mL | 1.03 ng/mL |  |  |  |  |  | 
B2 |  |  |  | 0.35 ng/mL | 0.68 ng/mL | 1.94 ng/mL | 1.76 ng/mL | 0.08 µg/mL | 
B3 |  |  |  | 0.54 ng/mL | 0.24 ng/mL | 1.19 ng/mL | 1.98 ng/mL | 0.088 µg/mL | 
B4 |  |  |  | 0.32 ng/mL | 0.59 ng/mL | 2.03 ng/mL | 1.25 ng/mL | 0.203 µg/mL | 
B5 | 0.057 µg/mL | 0.23 ng/mL | 0.93 ng/mL |  |  |  |  |  | 
B6 | 0.096 µg/mL | 0.43 ng/mL | 1.03 ng/mL |  |  |  |  |  | 
